# Assay: yeast display, Sf9 membrane polyspecificity reagent, FACS + sequencing; frameworks hold sequencing errors
# Procedure, shortened: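 Nanobodies came from a synthetic yeast display library in Saccharomyces cerevisiae BJ5465, induced with galactose for 36–48 hours and stained for 1 hour at 4 °C with 10% biotinylated, detergent-solubilized Sf9 membrane reagent. Cells were enriched on streptavidin microbeads and then FACS-sorted, with low and high (top ~1%) gates set on anti-HA fluorescence for expression and streptavidin fluorescence for reagent binding. Each polyreactivity label reflects the gate a clone came from. Genes were amplified by colony PCR, sequenced by MiSeq 2 × 250 and filtered by CDR length.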
row,Sequence,polyreactivity (PSR sort gate)
1,QVQLVESGGGLVQAGGSLRLIFAASGRTFVLNAMRWYRQAPGKEREFVAAISWGGVRTYYADSVKGRFTISRDNAKNTVYLQMNSLKPEDTAVYYCATCGSRYRRYDYWGQGTQVTVSS,high polyreactivity
2,QVQLVESGGGLVQAGGSLRLISAASGNIVYFNAMGWYRQAPGKERELVAAISRAGSTYYADSVKGRFTISRDNAKNTVYLQMNSLKQEDTAVYYCAATTGRPDNYYYWGQGTQVTVSS,high polyreactivity
3,QVQLVESGGGLVQAGGSLRLNCAASGSIFDDYAMGWYRQAPGKERELVAAINIRTGSTYYADSEKGRFTISRDNAKNTVYLQMNSLKPEDTAVYYCNSVVRGFVRHLDYWGQGTQVTVSS,low polyreactivity
4,QVQLVESGGGLVQAGGSLRLNCAASGSIFDKNAMGWYRQAPGKERELVAAISRSGGSTYYADSVKGRFTISRDNAKNTVYLQMNSLKPEVTAVYYCNKYTNGRNFDYWGQGTQVTVSS,high polyreactivity
5,QVQLVESGGGLVQAGGSLRLNCAASGSIFLIYAMGWYRQATGKERELVAGINWSGSRTYNADSVKGRFTISRDNAKNTVYLQMNSLKPEDTAVYYCAARVRRPLYSAYDSWGQGTQVTVSS,low polyreactivity
6,QVQLVESGGGLVQAGGSLRLNCAASGSIFTGNAMGWYRQAPGKERELVASITTSTDSTYYADSVKGRFTISRDNAKNTVYLQMNRLKTEDTAVYYCAAEYAVAWKYGLYFYFHFDYWGQGTQVTVSS,low polyreactivity
7,QVQLVESGGGLVQAGGSLRLRCAASGFIFQINAMGWYRQAPGKEREFVAAISRSVGSTSYADSVKGRFTISRDNAKNTVYLQMNSLKPEDTAVYYCNAAQRKRKGPYDYWGQGTQVTVSS,high polyreactivity
8,QVQLVESGGGLVQAGGSLRLRCAASGFIYIRNAMGWYRQAPGKERELVAAITRSGGRTYYADSVKGRFTISRDNAKNTVYLQMNSLIPEDTAVYYCASDAEAAWGQGTQVTVSS,high polyreactivity
9,QVQLVESGGGLVQAGGSLRLRCAASGFTFQNYVMGWYRQAPGKESELVAAINSGGRTYYADSVKGRFTISRDYANNTVYLQMNSLKPEDTAVYFCKDRRGHYWGQGTQVTVSS,high polyreactivity
10,QVQLVESGGGLVQAGGSLRLRCAASGFTFYWYAMGWYRQAPGKEREIVAAIDQSGGSTYYADSVKGRFTISRDNAKNSVYLQMNSLKQEDTAVYYCAARYILWDGDSWTEFDYWGQGTQVTVSS,low polyreactivity
11,QVQLVESGGGLVQAGGSLRLRCAASGIIFTDYAMGWYRQAPGKERELVAAISSGGGSTYYAHSVKGRFTISRDNAKNTVYFLMNSLKPDVTAVYYCAAEGYLISGAGDYLYDYYWGQGTQVTVSS,high polyreactivity
12,QVQLVESGGGLVQAGGSLRLRCAASGIIFYGNAMGWYRPAPGQERELVAAISRRSGSTYYADSVKGRFTISRDTAKNTVYLQMNSLKPEDTAVYYGNKRAANAVTINDMDYWGQGTQVTVSS,high polyreactivity
13,QVQLVESGGGLVQAGGSLRLRCAASGIIFYRNVMGWYRQAPGKERELVAAISGRGGSTYYADSVKGRFTISRDNAKNTVYLQMNILKPEETAVYYCATDTRTWRFTRGAWYTYGSDYWGQGTQVTVSS,high polyreactivity
14,QVQLVESGGGLVQAGGSLRLRCAASGLIFIFNAMGWYRQAPGKERELVAAIDTSDDSTYYADSVKGRFTISRDNAKNTVYLQMNSMKPEDTAVYYCAAEELSNYEYWGQGTQVTVSS,low polyreactivity
15,QVQLVESGGGLVQAGGSLRLRCAASGLTFRKYPMGWYRPAPGKERELVATISRNGGSTYSADSVKGRFTISSDNAKITVYLQMNSLKPEDTAVYYCAADYYTYDYAGYGYWGQGTQVTVSS,high polyreactivity
16,QVQLVESGGGLVQAGGSLRLRCAASGLTYSNAMGWYRQAPGKERELVAAISWRGGRTYYADSVKGRFTISRDNAKNTVYLQMNSLKPEDTAVYYCAKYAHGHKWYGYWGQGTQVTVSS,low polyreactivity

row,Sequence,polyreactivity (PSR sort gate)
1,QVQLVESGGGLVQAGGSLRLRCAASGRIFGYNDMGWYRQAPGKERELVAAINWTGGSTYYADSVKARFTISRDNSKNTVYLQMNSLKPEDTAVYYCNADARTKWVQTHTDFISDYDYWGQGTQVTVSS,low polyreactivity
2,QVQLVESGGGLVQAGGSLRLRCAASGRIFNNYAMGWYRPAPGKERELVAAISGSGGSTYYADSVKGRFTISRDNAKNNVYLQMNSLKPEDTAVYYCSTSGPHYFSRNFDYWGQGTQVTVSS,low polyreactivity
3,QVQLVESGGGLVQAGGSLRLRCAASGRIFVENAMGWYRQAPGKERELVATISSGDSTNYADSVKGRFTISRDNAKNTVYLQMNSLKPEDTAVYYCDAADGIIESDYWGQGTQVTVSS,low polyreactivity
4,QVQLVESGGGLVQAGGSLRLRCAASGRILWWYAMGWYRQAPGKERELVATITYSGGSTYADSVKGRFTISRDNAKNTVYLQMNSLKPEDTAVYYCAARLPLYYGKSDYWGQGTQVTVSS,high polyreactivity
5,QVQLVESGGGLVQAGGSLRLRCAASGRTFKPYVMGWNRQAPGKERELVAAISSRGGSTYYADSVKGRFTISRDNAKNTFYLQMNSLKPEDTAVYYCNAAYWFSNKYGYWGQGTQVTVAS,high polyreactivity
6,QVQLVESGGGLVQAGGSLRLRCAASGRTFRYYAMGWYRQAPGKERELVAVINYRGGSTYYADSVKGRFTISRDNEKNTVYLQMNSLKPEDTAVYYCAAQYIGWHLYWYDYWGQGTQVTVSS,low polyreactivity
7,QVQLVESGGGLVQAGGSLRLRCAASGRTFTYNAMVWYRQAPGKERELVPANNFSGVSTYYADSVKGRFTISRDNAKNTVYLQMNILKPEVTAVYYCAARGSARKSFPYPLEYWGQGTQVTVSS,high polyreactivity
8,QVQLVESGGGLVQAGGSLRLRCAASGSIFTDYAMGGYRQAPGKERELVAVIDIDGSTYYADSVKGRFTISRDNAKNTVYLQMNSLKPEDTAVYDCAAGYTYYSLYGYWGQGTQVTGSS,low polyreactivity
9,QVQLVESGGGLVQAGGSLRLRCAASGSIFTWYAMGWYRQAPAKERELVAAITRGGSTSADSVKGRFTISRDNAKNTVYLQMNSLKPEYTAVYYCNAVYGVYDFNYWGQGTQVTVSS,low polyreactivity
10,QVQLVESGGGLVQAGGSLRLRCAASGSIFVYNARGWYRPAPGKERELVPAISKSGGRTYYADSVKGRFTISRDNAKNTVYCQMHSLKPEDTAVYYCNALAGQRQGWEYDYWGQGTQVTVSS,high polyreactivity
11,QVQLVESGGGLVQAGGSLRLRCAASGSIFYLYAMGWFRRAPGKERELVAASSRSGASTYYADSVKGRFTISRDNAKNTVYLQMNSLKPEDTAVYYGAADYNSQLARIYDYWGQGTQVTVSS,low polyreactivity
12,QVQLVESGGGLVQAGGSLRLRCAASGSILYSYTMGWYRQAPGKERELVAALIRGGRTNYADSVKGRFTISRDNAKNTVYLQMNSLKPEDTAVYYCNTGSYAWSWRRAMDYWGQGTQVTVSS,high polyreactivity
13,QVQLVESGGGLVQAGGSLRLRCAASGSIMGRYAMGWYRQAPGKERELVAAITSSGTRTYYPDSVKGRFTISRDNANNTVYLQMNSLKPEDTAVYYCAAYLAITRSYYIVPYDYWGQGTQVTVSS,high polyreactivity
14,QVQLVESGGGLVQAGGSLRLRCAASGSNFYQNAMGGYRQAPGKETALLATIDVNTVSTSYADSVKGRFTISRDNAKNTVYLQMHSLKPEDTAVYYCAAGPDVGVLGDRDPWKNVKYDYWGQGTQVTASS,low polyreactivity
15,QVQLVESGGGLVQAGGSLRLRCAASGSTCFLYAMGWYRQAPGKEMELVASISDGSSTNYADSVKGRFTISRDNAKNTVYLQMNSLKPEDTAVYYCDAARWYAHRVDYWGQGTQVTVSS,low polyreactivity
16,QVQLVESGGGLVQAGGSLRLRCAASGSTFAYYAMGWYRQAPGKDRELVARIRSSGVSTYYADSVKGRFTISRDNPNNTVSLQMNTLKPEDTAGYYCHTAYAGVRYDSWGQGTQVTVSS,low polyreactivity
